The values below come from the supplement of paper PMC7125110.

± gives the standard error. For some of these results: This sample holds only a part of the variants without activity. Some results are limits rather than exact numbers.

The chains are these.
B1: glmS ribozyme (parent)
chain: AUAAAAGCGCCAGAACUACAGAAAUGUAGUUGACGAGGAGGAGGUUUAUCGAAUUUUCGGCGGAUGCCUCCAAA

Holding throughout (conditions): with glucosamine-6-phosphate
The variants in series [1] derive from B1. The series is described as follows: kcat; higher = faster cleavage; RNA array. In short, it runs like this:
(§1)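 On sequenced MiSeq chips, barcoded ribozyme variants were made in situ by E. coli RNA polymerase and followed at 37 °C through a hybridised Cy3 probe. Glucosamine-6-phosphate was flowed in at 40 μM to 10 mM in HEPES/KCl/Mg(OAc)2 buffer. Exponential fits to normalised per-tile medians gave kobs, and weighted Michaelis–Menten fits gave kcat and KM.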

In series [2] the parent is B1. Nature of the series: KM; higher = weaker cofactor use; RNA array. Put shortly: as §1
The variants in series [3] derive from B1. The series is described as follows: self-cleavage kobs at 10000 uM GlcN6P; higher = faster cleavage; RNA array. Put shortly:
as §1

Variants of B1 are the subject of series [4]. Nature of the series: self-cleavage kobs at 160 uM GlcN6P; higher = faster cleavage; RNA array. Put shortly:
as §1

In series [5] the parent is B1. Nature of the series: self-cleavage kobs at 640 uM GlcN6P; higher = faster cleavage; RNA array. Put shortly: as §1
Series [6] covers variants of B1. The series is described as follows: self-cleavage kobs at 2500 uM GlcN6P; higher = faster cleavage; RNA array. In short, it runs like this:
as §1

Series [7] covers variants of B1. The series is described as follows: self-cleavage kobs at 40 uM GlcN6P; higher = faster cleavage; RNA array. Put shortly:
as §1

For the variant A14G U49A, the kcat (commonly the maximal rate divided by the concentration of active sites) with glucosamine-6-phosphate [1] turned out to be 3.99e-05 ± 1e-06 s⁻¹. For the same variant, the KM – broadly, the substrate concentration at which the rate is half of its maximum – with glucosamine-6-phosphate [2] was 773 ± 130 µM. The “self-cleavage kobs at 10000 uM GlcN6P” value with glucosamine-6-phosphate [3] is 3.67e-05 ± 1.2e-05 s⁻¹.
As for A14G C68A, the kcat with glucosamine-6-phosphate [1] came out at 9.34e-05 ± 1.3e-05 s⁻¹. Besides, in the series with glucosamine-6-phosphate [2], the KM is 254 ± 120 µM. Further, the “self-cleavage kobs at 160 uM GlcN6P” value with glucosamine-6-phosphate [4] worked out at 2.91e-05 ± 1.3e-05 s⁻¹. Also, the “self-cleavage kobs at 640 uM GlcN6P” value with glucosamine-6-phosphate [5] was determined as 7.66e-05 ± 1.6e-05 s⁻¹. Also, in the series with glucosamine-6-phosphate [6], the “self-cleavage kobs at 2500 uM GlcN6P” value was 0.000105 ± 3.4e-05 s⁻¹. For the same variant, the “self-cleavage kobs at 10000 uM GlcN6P” value with glucosamine-6-phosphate [3] amounted to 7.77e-05 ± 2.1e-05 s⁻¹.
In the case of G37U C61A, the kcat with glucosamine-6-phosphate [1] turned out to be 1.07e-05 ± 1.5e-06 s⁻¹. Further, in the series with glucosamine-6-phosphate [3], the “self-cleavage kobs at 10000 uM GlcN6P” value is less than 1e-05 s⁻¹.
Regarding A6U A15U, the kcat with glucosamine-6-phosphate [1] turned out to be 3.81e-05 ± 2.5e-06 s⁻¹. Moreover, the KM with glucosamine-6-phosphate [2] is 1260 ± 360 µM. The “self-cleavage kobs at 2500 uM GlcN6P” value with glucosamine-6-phosphate [6] was 2.31e-05 ± 8.8e-06 s⁻¹. For the same variant, the “self-cleavage kobs at 10000 uM GlcN6P” value with glucosamine-6-phosphate [3] is 3.44e-05 ± 7e-06 s⁻¹.
As for A14U U69G, in the series with glucosamine-6-phosphate [1], the kcat turned out to be 3.85e-05 ± 7.5e-06 s⁻¹. Moreover, the “self-cleavage kobs at 160 uM GlcN6P” value with glucosamine-6-phosphate [4] was determined as 4.67e-05 ± 1.3e-05 s⁻¹. Moreover, the “self-cleavage kobs at 2500 uM GlcN6P” value in the series with glucosamine-6-phosphate [6] was 3.53e-05 ± 6.6e-06 s⁻¹. Also, in the series with glucosamine-6-phosphate [3], the “self-cleavage kobs at 10000 uM GlcN6P” value was 3.9e-05 ± 8.1e-06 s⁻¹.
On to A6G C71U, for which the kcat in the series with glucosamine-6-phosphate [1] was 6.03e-05 ± 2.1e-06 s⁻¹. The KM with glucosamine-6-phosphate [2] stood at 1890 ± 260 µM. In the series with glucosamine-6-phosphate [6], the “self-cleavage kobs at 2500 uM GlcN6P” value was found to be 3.33e-05 ± 8e-06 s⁻¹. Further, the “self-cleavage kobs at 10000 uM GlcN6P” value with glucosamine-6-phosphate [3] was found to be 5.1e-05 ± 6.3e-06 s⁻¹.
In the case of A12U U45A A53U, in the series with glucosamine-6-phosphate [1], the kcat was found to be 0.125 ± 0.042 s⁻¹. In addition, in the series with glucosamine-6-phosphate [2], the KM worked out at 1100 ± 390 µM. The “self-cleavage kobs at 40 uM GlcN6P” value with glucosamine-6-phosphate [7] turned out to be 0.00437 ± 0.0009 s⁻¹.
On to G29U G37C, for which the kcat in the series with glucosamine-6-phosphate [1] was determined as 1.83e-05 ± 2.2e-06 s⁻¹.
Still for that read-out and setting: in the case of G37C G59U it was 1.65e-05 ± 6.9e-06 s⁻¹.
Take A6C U47A: the kcat with glucosamine-6-phosphate [1] stood at 0.0001 ± 5.6e-06 s⁻¹. Besides, the KM with glucosamine-6-phosphate [2] was 6300 ± 770 µM. Besides, the “self-cleavage kobs at 10000 uM GlcN6P” value with glucosamine-6-phosphate [3] came to 6.15e-05 ± 1.4e-05 s⁻¹.
A6C U47G: the kcat in the series with glucosamine-6-phosphate [1] stood at 1.58e-05 ± 2.8e-06 s⁻¹.
For A15C C16U, in the series with glucosamine-6-phosphate [1], the kcat amounted to 0.00405 ± 0.00069 s⁻¹. Further, the KM with glucosamine-6-phosphate [2] was determined as 3220 ± 830 µM. Besides, the “self-cleavage kobs at 40 uM GlcN6P” value with glucosamine-6-phosphate [7] came to 4.37e-05 ± 7.4e-06 s⁻¹. Moreover, in the series with glucosamine-6-phosphate [4], the “self-cleavage kobs at 160 uM GlcN6P” value amounted to 0.000159 ± 4.5e-05 s⁻¹. Moreover, in the series with glucosamine-6-phosphate [5], the “self-cleavage kobs at 640 uM GlcN6P” value was determined as 0.000777 ± 0.0001 s⁻¹. Moreover, the “self-cleavage kobs at 2500 uM GlcN6P” value in the series with glucosamine-6-phosphate [6] was found to be 0.00235 ± 0.00038 s⁻¹. In addition, the “self-cleavage kobs at 10000 uM GlcN6P” value in the series with glucosamine-6-phosphate [3] amounted to 0.0029 ± 0.0003 s⁻¹.
A15G G41C: the kcat with glucosamine-6-phosphate [1] is 0.000647 ± 4.6e-05 s⁻¹. Moreover, the KM with glucosamine-6-phosphate [2] is 2170 ± 310 µM. Also, in the series with glucosamine-6-phosphate [4], the “self-cleavage kobs at 160 uM GlcN6P” value is 4.44e-05 ± 1.5e-05 s⁻¹. For the same variant, the “self-cleavage kobs at 640 uM GlcN6P” value with glucosamine-6-phosphate [5] was 0.000149 ± 2.7e-05 s⁻¹. The “self-cleavage kobs at 2500 uM GlcN6P” value with glucosamine-6-phosphate [6] was 0.00032 ± 5.7e-05 s⁻¹. For the same variant, the “self-cleavage kobs at 10000 uM GlcN6P” value with glucosamine-6-phosphate [3] was found to be 0.000544 ± 6.2e-05 s⁻¹.
For the variant A12G U69A, the kcat with glucosamine-6-phosphate [1] came out at 0.000112 ± 2.3e-05 s⁻¹. For the same variant, the “self-cleavage kobs at 640 uM GlcN6P” value with glucosamine-6-phosphate [5] amounted to 4.87e-05 ± 2.1e-05 s⁻¹. For the same variant, the “self-cleavage kobs at 2500 uM GlcN6P” value with glucosamine-6-phosphate [6] is 0.000171 ± 5.2e-05 s⁻¹. In addition, the “self-cleavage kobs at 10000 uM GlcN6P” value in the series with glucosamine-6-phosphate [3] is 9.85e-05 ± 1.9e-05 s⁻¹.
Take G40U A64G: the kcat with glucosamine-6-phosphate [1] was found to be 0.000292 ± 2.9e-05 s⁻¹. Besides, in the series with glucosamine-6-phosphate [2], the KM worked out at 1790 ± 360 µM. Further, the “self-cleavage kobs at 640 uM GlcN6P” value with glucosamine-6-phosphate [5] came to 8.19e-05 ± 1.2e-05 s⁻¹. Also, the “self-cleavage kobs at 2500 uM GlcN6P” value in the series with glucosamine-6-phosphate [6] amounted to 0.000145 ± 2.8e-05 s⁻¹. Also, the “self-cleavage kobs at 10000 uM GlcN6P” value in the series with glucosamine-6-phosphate [3] was determined as 0.00026 ± 3.3e-05 s⁻¹.
Consider A39C A64C, for which, in the series with glucosamine-6-phosphate [1], the kcat is 4.47e-05 ± 2.7e-06 s⁻¹. The “self-cleavage kobs at 160 uM GlcN6P” value with glucosamine-6-phosphate [4] was less than 1e-05 s⁻¹. Besides, the “self-cleavage kobs at 2500 uM GlcN6P” value with glucosamine-6-phosphate [6] is 4.35e-05 ± 1.6e-05 s⁻¹. In the series with glucosamine-6-phosphate [3], the “self-cleavage kobs at 10000 uM GlcN6P” value stood at 4.27e-05 ± 1.3e-05 s⁻¹.
With U31C U57A, the kcat in the series with glucosamine-6-phosphate [1] was determined as 2.49e-05 ± 2.1e-06 s⁻¹. The “self-cleavage kobs at 2500 uM GlcN6P” value with glucosamine-6-phosphate [6] came to 2.32e-05 ± 9.8e-06 s⁻¹.
For A64U C71U, the kcat with glucosamine-6-phosphate [1] turned out to be 0.000158 ± 5.9e-05 s⁻¹. Moreover, the “self-cleavage kobs at 640 uM GlcN6P” value with glucosamine-6-phosphate [5] was found to be 3.94e-05 ± 1.3e-05 s⁻¹. Further, the “self-cleavage kobs at 2500 uM GlcN6P” value with glucosamine-6-phosphate [6] turned out to be 3.79e-05 ± 1.6e-05 s⁻¹. The “self-cleavage kobs at 10000 uM GlcN6P” value with glucosamine-6-phosphate [3] stood at 0.000112 ± 1.6e-05 s⁻¹.
Take A48C U54C: in the series with glucosamine-6-phosphate [1], the kcat came to 0.00042 ± 0.00013 s⁻¹. For the same variant, in the series with glucosamine-6-phosphate [5], the “self-cleavage kobs at 640 uM GlcN6P” value turned out to be 9.71e-05 ± 2.4e-05 s⁻¹. Also, in the series with glucosamine-6-phosphate [6], the “self-cleavage kobs at 2500 uM GlcN6P” value is 0.000224 ± 6e-05 s⁻¹. Also, the “self-cleavage kobs at 10000 uM GlcN6P” value with glucosamine-6-phosphate [3] was 0.000316 ± 9.5e-05 s⁻¹.
Regarding C61G U69C, the kcat with glucosamine-6-phosphate [1] amounted to 6.05e-05 ± 1.7e-05 s⁻¹. Besides, the “self-cleavage kobs at 160 uM GlcN6P” value with glucosamine-6-phosphate [4] turned out to be 6.31e-05 ± 1.1e-05 s⁻¹. For the same variant, the “self-cleavage kobs at 640 uM GlcN6P” value in the series with glucosamine-6-phosphate [5] was 5.44e-05 ± 1.3e-05 s⁻¹. In addition, in the series with glucosamine-6-phosphate [6], the “self-cleavage kobs at 2500 uM GlcN6P” value was 7.59e-05 ± 1.2e-05 s⁻¹.
On to G38U G66C C71U, for which, in the series with glucosamine-6-phosphate [1], the kcat was found to be 1.04e-05 ± 1e-06 s⁻¹.
